Results published in IntAct's records for PubMed 25764370.

B1: Structural maintenance of chromosomes protein 5 (Saccharomyces cerevisiae), Q08204 (parent)
chain: MTSLIDLGRYVERTHHGEDTEPRSKRVKIAKPDLSSFQPGSIIKIRLQDFVTYTLTEFNLSPSLNMIIGPNGSGKSTFVCAVCLGLAGKPEYIGRSKKVEDFIKNGQDVSKIEITLKNSPNVTDIEYIDARDETIKITRIITRSKRRSDYLINDYQVSESVVKTLVAQLNIQLDNLCQFLSQERVEEFARLKSVKLLVETIRSIDASLLDVLDELRELQGNEQSLQKDLDFKKAKIVHLRQESDKLRKSVESLRDFQNKKGEIELHSQLLPYVKVKDHKEKLNIYKEEYERAKANLRAILKDKKPFANTKKTLENQVEELTEKCSLKTDEFLKAKEKINEIFEKLNTIRDEVIKKKNQNEYYRGRTKKLQATIISTKEDFLRSQEILAQTHLPEKSVFEDIDIKRKEIINKEGEIRDLISEIDAKANAINHEMRSIQRQAESKTKSLTTTDKIGILNQDQDLKEVRDAVLMVREHPEMKDKILEPPIMTVSAINAQFAAYLAQCVDYNTSKALTVVDSDSYKLFANPILDKFKVNLRELSSADTTPPVPAETVRDLGFEGYLSDFITGDKRVMKMLCQTSKIHTIPVSRRELTPAQIKKLITPRPNGKILFKRIIHGNRLVDIKQSAYGSKQVFPTDVSIKQTNFYQGSIMSNEQKIRIENEIINLKNEYNDRKSTLDALSNQKSGYRHELSELASKNDDINREAHQLNEIRKKYTMRKSTIETLREKLDQLKREARKDVSQKIKDIDDQIQQLLLKQRHLLSKMASSMKSLKNCQKELISTQILQFEAQNMDVSMNDVIGFFNEREADLKSQYEDKKKFVKEMRDTPEFQSWMREIRSYDQDTKEKLNKVAEKYEEEGNFNLSFVQDVLDKLESEIAMVNHDESAVTILDQVTAELRELEHTVPQQSKDLETIKAKLKEDHAVLEPKLDDIVSKISARFARLFNNVGSAGAVRLEKPKDYAEWKIEIMVKFRDNAPLKKLDSHTQSGGERAVSTVLYMIALQEFTSAPFRVVDEINQGMDSRNERIVHKAMVENACAENTSQYFLITPKLLTGLHYHEKMRIHCVMAGSWIPNPSEDPKMIHFGETSNYSFD
partner: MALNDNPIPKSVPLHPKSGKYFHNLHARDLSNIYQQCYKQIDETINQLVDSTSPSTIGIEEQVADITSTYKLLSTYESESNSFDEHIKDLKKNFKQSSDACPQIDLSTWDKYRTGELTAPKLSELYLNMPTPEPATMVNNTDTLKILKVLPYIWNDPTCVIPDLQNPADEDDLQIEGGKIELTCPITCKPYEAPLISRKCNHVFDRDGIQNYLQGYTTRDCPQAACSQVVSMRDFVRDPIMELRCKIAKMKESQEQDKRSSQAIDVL
B2: Structural maintenance of chromosomes protein 5 (Saccharomyces cerevisiae), Q08204 (parent)
chain: B1 chain

Variants of: B1
Settings: with nse2_yeast MMS21, P38632

| effect of a mutation on the interaction | Variant |
| --- | --- |
| decreasing interaction strength | Q752A;L755A;L762A |
| disrupting interaction strength | I780R;I784R;F787A;N791A |

Variants of: B2
Settings: with smt3_yeast SMT3, Q12306
smt3_yeast SMT3, Q12306, sequence (Q12306 whole entry): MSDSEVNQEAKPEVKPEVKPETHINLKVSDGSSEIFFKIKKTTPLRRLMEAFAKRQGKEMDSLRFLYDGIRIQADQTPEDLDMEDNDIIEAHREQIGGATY

| effect of a mutation on the interaction | Variant |
| --- | --- |
| decreasing interaction strength | M769A;K773A |
| disrupting interaction strength | I780R;I784R;F787A;N791A |
| decreasing interaction strength | Q752A;L755A;L762A |
